Source: patent US20260209364A1 (NB HEALTH LABORATORY, published 2026)
Where a chain is given by its changes, count along the chain named.

B1: chimeric anti-CCR7 antibody VH0/VL0 (antibody, human IgG1, kappa, V domains shown)
VH: EVQLQQSGPDLVKPGASVKISCKASGYSFTGYYMHWVKQSHGKSLEWIGRVNPNNGGTSYNKKFKVKAILTVDRSSSTAYMEFRSLTLEDSAVYYCARSESNNFYAMDYWGQGKSVTVSS
VL: DILMTQTPLSLPVSLGDQVSISCRSSQSLVHSNGNTYLCWYLQKPGQSPKLLIYRVSNRFSGVPDRFSGSGSGTDFTLKISRVEAEDLGVYFCFQGSHVPHTFGSGTKLEIKR
B2: humanized anti-CCR7 antibody NB007-01 (antibody, human IgG1, kappa, V domains shown)
VH: EVQLVQSGPEVVKPGASVKLSCKASGYSFTGYYMHWVKQAPGQGLEWIGRVNPNQGGTSYNKKFKVRVTITVDRSISTAYMEFSRLRSDDTVVYYCARSESNNFYAMDYWGQGTSVTVSS
VL: DIVMTQSPLSLSVTPGQPASISCRSSQSLVHSNGNTYLCWYLQKPGQSPQLLIYRVSNKFSGVPDRFSGSGSGTDFTLKISRVEAEDVGVYYCFQGSHVPHTFGQGTKVEIKR
B3: humanized anti-CCR7 antibody NB007-02 (antibody, human IgG1, kappa, V domains shown)
VH: B2 VH with I70L
VL: B2 VL with K59R
B4: humanized anti-CCR7 antibody NB007-03 (antibody, human IgG1, kappa, V domains shown)
VH: B2 VH with Q55N, I70L
VL: B2 VL with S7T, P15L, K59R, Q105S

Key:
human CCR7 [1] = biological target: T1, human CCR7 (human, UniProt P32248 25-378); experiment: cell-based or functional assay
T1 sequence: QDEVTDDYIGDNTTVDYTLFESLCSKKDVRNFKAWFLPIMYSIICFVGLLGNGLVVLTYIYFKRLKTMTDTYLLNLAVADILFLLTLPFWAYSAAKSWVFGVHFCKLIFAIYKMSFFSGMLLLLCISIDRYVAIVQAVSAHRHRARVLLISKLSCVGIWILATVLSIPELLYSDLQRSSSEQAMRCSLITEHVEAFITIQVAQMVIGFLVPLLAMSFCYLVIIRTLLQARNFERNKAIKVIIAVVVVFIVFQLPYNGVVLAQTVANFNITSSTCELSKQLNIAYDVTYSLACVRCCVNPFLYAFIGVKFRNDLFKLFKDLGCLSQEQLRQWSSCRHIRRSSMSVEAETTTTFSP

human CCR7 [2] = biological target: T1, human CCR7; experiment: cell-based or functional assay; remark: listed apart in the source

Binder | IC50 (nM), inhibition of intracellular Ca2+ signaling in human CCR7 gene-transfected cells stimulated with 5x10^-8 M CCL21 (human CCR7 [1]) [nM] | IC50, inhibition of CCL19-dependent cell migration of Granta-519 cells (human CCR7 [2]) [nM] | IC50, inhibition of CCL19-induced intracellular Ca2+ signaling in hCCR7 gene-transfected cells (human CCR7 [2]) [nM] | IC50, inhibition of CCL21-induced intracellular Ca2+ signaling in hCCR7 gene-transfected cells (human CCR7 [2]) [nM] | half maximal inhibitory concentration (IC50), CCL21-induced intracellular Ca2+ signaling in MJ cells (human CCR7 [2]) [nM]
B1 | 16.2 |  |  |  | 
B2 | 18.2 | 25.5 | 21.4 | 17.8 | 14.8
B3 | 16.4 |  |  |  | 
B4 | 12.5 |  |  |  | 
